# Test results reported in article PMC6404062.
# Assays:
# [1] = molecular target: Human IgG4 monoclonal antibody (human); experiment: ELISA; hIgG4 coated on wells as in the screening; 2.5 × 10^11 phage particles in 100 µL per well in DMEM with 5% FCS and 5 g/L ovalbumin, in triplicate; original phage library assayed beside the clones
# [2] = molecular target: Human IgG4 monoclonal antibody (human); experiment: ELISA; data not shown: the same plates in DMEM with 5% FCS and 5 g/L ovalbumin, hIgG4-coated wells compared with control wells coated with 200 µL of 100 µg/mL lactoferrin in TBS
Binder,fold absorbance over the original phage library [1] [fold],fold absorbance over lactoferrin-coated control wells [2] [fold],ELISA signal [1] [AU],fold ELISA signal over the original phage library [1] [fold]
"CPSTHWK [Clone 1 heptapeptide CPSTHWK, displayed on M13 phage]",> 2.5,> 3,–,–
"NCHKCWN [Clone 40 heptapeptide NCHKCWN, displayed on M13 phage]",> 2.5,> 3,> 0.85,> 4
"NVQYFAV [Clone 3 heptapeptide NVQYFAV, displayed on M13 phage]",> 2.5,> 3,> 0.85,> 4
"SHLSKNF [Clone 44 heptapeptide SHLSKNF, displayed on M13 phage]",> 2.5,> 3,–,–
"QPQMSHM [Clone 34 heptapeptide QPQMSHM, displayed on M13 phage]",> 2.5,> 3,–,–
"ASHTQKS [Clone 5 heptapeptide ASHTQKS, displayed on M13 phage]",> 2.5,> 3,–,–
"TNIESLK [Clone 36 heptapeptide TNIESLK, displayed on M13 phage]",> 2.5,> 3,–,–
